Two molecules from publication PMC3891853 can be followed below.

Assay [1] concerns the target HA-tagged glucocorticoid receptor (GR) (UniProt P04150). The assay is described as follows: co-immunoprecipitation with anti-Flag agarose, Western blot densitometry. The conditions noted are these: HEK293 cells, transient transfection, mean + SEM, N = 3, parent: 100, read off a plot.
Another assay deals with Hsc70/Hsp70. In words: co-immunoprecipitation with anti-Flag agarose, densitometry of co-precipitated Hsc/Hsp70. The following applies: HEK293 cells, transient transfection; mean + SEM, N = 3; parent: 100; read off a plot.
For assay [2], the target named is Hsc70, in vitro translated and labeled (UniProt P11142).
Sequence of UniProt P11142 (P11142 whole entry): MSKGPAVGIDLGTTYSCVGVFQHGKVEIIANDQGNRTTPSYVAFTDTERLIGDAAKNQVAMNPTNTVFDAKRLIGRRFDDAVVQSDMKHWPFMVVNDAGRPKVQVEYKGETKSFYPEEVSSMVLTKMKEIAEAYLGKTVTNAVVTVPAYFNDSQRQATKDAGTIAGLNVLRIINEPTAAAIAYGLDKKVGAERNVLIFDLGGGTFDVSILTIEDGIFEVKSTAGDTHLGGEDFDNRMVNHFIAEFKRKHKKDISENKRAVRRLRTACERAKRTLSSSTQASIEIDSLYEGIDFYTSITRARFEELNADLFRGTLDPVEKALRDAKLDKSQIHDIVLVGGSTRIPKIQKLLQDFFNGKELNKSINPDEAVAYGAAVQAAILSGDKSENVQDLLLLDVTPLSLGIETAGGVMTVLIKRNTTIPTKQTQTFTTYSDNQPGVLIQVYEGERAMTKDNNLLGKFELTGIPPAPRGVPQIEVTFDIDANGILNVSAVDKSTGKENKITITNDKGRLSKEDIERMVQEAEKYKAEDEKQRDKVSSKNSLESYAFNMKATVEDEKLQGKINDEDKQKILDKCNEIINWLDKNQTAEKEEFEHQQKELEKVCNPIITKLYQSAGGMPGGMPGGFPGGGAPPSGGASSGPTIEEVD

Sequence of UniProt P04150 (P04150 whole entry): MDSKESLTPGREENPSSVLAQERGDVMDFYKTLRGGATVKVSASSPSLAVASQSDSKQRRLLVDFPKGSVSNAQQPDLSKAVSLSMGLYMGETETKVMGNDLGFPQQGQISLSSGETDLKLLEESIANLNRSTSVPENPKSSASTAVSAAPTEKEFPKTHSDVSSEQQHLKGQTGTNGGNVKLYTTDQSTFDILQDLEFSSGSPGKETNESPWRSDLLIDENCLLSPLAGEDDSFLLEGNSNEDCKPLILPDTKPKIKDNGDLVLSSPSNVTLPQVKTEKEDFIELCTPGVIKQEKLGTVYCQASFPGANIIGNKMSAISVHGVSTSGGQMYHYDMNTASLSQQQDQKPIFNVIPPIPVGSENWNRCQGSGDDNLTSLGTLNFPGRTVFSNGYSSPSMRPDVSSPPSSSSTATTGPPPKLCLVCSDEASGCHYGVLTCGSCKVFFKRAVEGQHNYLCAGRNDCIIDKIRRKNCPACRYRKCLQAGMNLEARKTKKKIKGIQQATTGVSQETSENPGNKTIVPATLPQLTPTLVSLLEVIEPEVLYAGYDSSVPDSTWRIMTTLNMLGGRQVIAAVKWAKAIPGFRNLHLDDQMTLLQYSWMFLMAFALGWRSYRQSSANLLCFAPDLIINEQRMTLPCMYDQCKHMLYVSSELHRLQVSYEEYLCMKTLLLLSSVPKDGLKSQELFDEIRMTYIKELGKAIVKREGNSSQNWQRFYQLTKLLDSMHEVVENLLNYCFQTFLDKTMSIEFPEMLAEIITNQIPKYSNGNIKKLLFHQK

“Flag-tagged wild-type Bcl2-associated athanogene 1, medium isoform (BAG-1M) R237A”: the values for the percent of parent (% (BAG-1M = 100%)) (in assay [1]; with Hsc70/Hsp70) were 18 and 6, respectively.

B1: purified HspBP1_mut (A137R, K249A; His-tagged) (natural protein)
chain: MSDEGSRGSRLPLALPPASQGCSSGGGGGGSSAGGSGNSRPPRNLQGLLQMAITAGSEEPDPPPEPMSEERRQWLQEAMSAAFRGQREEVEQMKSCLRVLSQPMPPTAGEAEQAADQQEREGALELLADLCENMDNRADFCQLSGMHLLVGRYLEAGAAGLRWRAAQLIGTCSQNVAAIQEQVLGLGALRKLLRLLDRDACDTVRVKALFAISCLVREQEAGLLQFLRLDGFSVLMRAMQQQVQKLKVASAFLLQNLLVGHPEHKGTLCSMGMVQQLVALVRTEHSPFHEHVLGALCSLVTDFPQGVRECREPELGLEELLRHRCQLLQQHEEYQEELEFCEKLLQTCFSSPADDSMDR
Consider B1, for which the ATPase activity of purified Hsc70 with DJA2 and HspBP1 mut (each 4 µM, 30°C) in assay [2] is 7.26 min⁻¹.
